# Measured values: PMC6606445 (Nature structural & molecular biology, 2018)
# Legend:
# [1] = target: RecE-αN-tetramer (UniProt Q15431); experiment: SEC-MALS
# [2] = target: SYCP1 αN-end (101-206) (human) (UniProt Q15431); experiment: crystal structure
# [3] = target: truncated SYCP1 αN-end (101-175) (human) (UniProt Q15431); experiment: crystal structure
# [4] = target: the molecule itself; experiment: SEC-MALS
# [5] = target: the molecule itself; experiment: SEC-MALS; remark: listed apart in the source
# [6] = target: the molecule itself; experiment: crystal structure
molecule,measurement,setting,value
RecE-αN-tetramer (from UniProt Q15431 206-362),stoichiometry N,[1],4
SYCP1 αN-end (101-206) (from UniProt Q15431 101-206) (domain or fragment),stoichiometry N,[2],4
truncated SYCP1 αN-end (101-175) (from UniProt Q15431 101-175) (domain or fragment),stoichiometry N,[3],4
SYCP1 αCore (101-783) (domain or fragment) GLSRVYSKLYKEAEKIKKWKVSTEAELRQKESKLQENRKIIEAQRKAIQELQFGNEKVSLKLEEGIQENKDLIKENNATRHLCNLLKETCARSAEKTKKYEYEREETRQVYMDLNNNIEKMITAFEELRVQAENSRLEMHFKLKEDYEKIQHLEQEYKKEINDKEKQVSLLLIQITEKENKMKDLTFLLEESRDKVNQLEEKTKLQSENLKQSIEKQHHLTKELEDIKVSLQRSVSTQKALEEDLQIATKTICQLTEEKETQMEESNKARAAHSFVVTEFETTVCSLEELLRTEQQRLEKNEDQLKILTMELQKKSSELEEMTKLTNNKEVELEELKKVLGEKETLLYENKQFEKIAEELKGTEQELIGLLQAREKEVHDLEIQLTAITTSEQYYSKEVKDLKTELENEKLKNTELTSHCNKLSLENKELTQETSDMTLELKNQQEDINNNKKQEERMLKQIENLQETETQLRNELEYVREELKQKRDEVKCKLDKSEENCNNLRKQVENKNKYIEELQQENKALKKKGTAESKQLNVYEIKVNKLELELESAKQKFGEITDTYQKEIEDKKISEENLLEEVEKAKVIADEAVKLQKEIDKRCQHKIAEMVALMEKHKHQYDKIIEERDSELGLYKSKEQEQSSLRASLEIELSNLKAELLSVKKQLEIEREEKEKLKREAKE,binding result,[4],binds
SYCP1 αC-end extended (676-783) L679A I688A (domain or fragment) ENLAEEVEKAKVAADEAVKLQKEIDKRCQHKIAEMVALMEKHKHQYDKIIEERDSELGLYKSKEQEQSSLRASLEIELSNLKAELLSVKKQLEIEREEKEKLKREAKE,stoichiometry N,[5],2
SYCP1 αN (101-362) (domain or fragment) GLSRVYSKLYKEAEKIKKWKVSTEAELRQKESKLQENRKIIEAQRKAIQELQFGNEKVSLKLEEGIQENKDLIKENNATRHLCNLLKETCARSAEKTKKYEYEREETRQVYMDLNNNIEKMITAFEELRVQAENSRLEMHFKLKEDYEKIQHLEQEYKKEINDKEKQVSLLLIQITEKENKMKDLTFLLEESRDKVNQLEEKTKLQSENLKQSIEKQHHLTKELEDIKVSLQRSVSTQKALEEDLQIATKTICQLTEEKETQ,binding result,[4],binds
GST-αC-dimer (domain or fragment) EKETQMEESNKARAAHSFVVTEFETTVCSLEELLRTEQQRLEKNEDQLKILTMELQKKSSELEEMTKLTNNKEVELEELKKVLGEKETLLYENKQFEKIAEELKGTEQELIGLLQAREKEVHDLEIQLTAITTSEQYYSKEVKDLKTELENEKLKNTELTSHCNKLSLENKELTQETSDMTLELKNQQEDINNNKKQEERMLKQIENLQETETQLRNELEYVREELKQKRDEVKCKLDKSEENCNNLRKQVENKNKYIEELQQENKALKKKGTAESKQLNVYEIKVNKLELELESAKQKFGEITDTYQKEIEDKKISEENLLEEVEKAKVIADEAVKLQKEIDKRCQHKIAEMVALMEKHKHQYDKIIEERDSELGLYKSKEQEQSSLRASLEIELSNLKAELLSVKKQLEIEREEKEKLKREAKE,stoichiometry N,[4],2
SYCP1 αC-dimer (358-783) (domain or fragment) EKETQMEESNKARAAHSFVVTEFETTVCSLEELLRTEQQRLEKNEDQLKILTMELQKKSSELEEMTKLTNNKEVELEELKKVLGEKETLLYENKQFEKIAEELKGTEQELIGLLQAREKEVHDLEIQLTAITTSEQYYSKEVKDLKTELENEKLKNTELTSHCNKLSLENKELTQETSDMTLELKNQQEDINNNKKQEERMLKQIENLQETETQLRNELEYVREELKQKRDEVKCKLDKSEENCNNLRKQVENKNKYIEELQQENKALKKKGTAESKQLNVYEIKVNKLELELESAKQKFGEITDTYQKEIEDKKISEENLLEEVEKAKVIADEAVKLQKEIDKRCQHKIAEMVALMEKHKHQYDKIIEERDSELGLYKSKEQEQSSLRASLEIELSNLKAELLSVKKQLEIEREEKEKLKREAKE,stoichiometry N,[4],2
SYCP1 αC-end (676-770) (domain or fragment) ENLLEEVEKAKVIADEAVKLQKEIDKRCQHKIAEMVALMEKHKHQYDKIIEERDSELGLYKSKEQEQSSLRASLEIELSNLKAELLSVKKQLEIE,stoichiometry N,[6],4
SYCP1 αN-tetramer (206-362) (domain or fragment) ETRQVYMDLNNNIEKMITAFEELRVQAENSRLEMHFKLKEDYEKIQHLEQEYKKEINDKEKQVSLLLIQITEKENKMKDLTFLLEESRDKVNQLEEKTKLQSENLKQSIEKQHHLTKELEDIKVSLQRSVSTQKALEEDLQIATKTICQLTEEKETQ,stoichiometry N,[4],4
SYCP1 αCore-ΔNtip (112-783) (domain or fragment) EAEKIKKWKVSTEAELRQKESKLQENRKIIEAQRKAIQELQFGNEKVSLKLEEGIQENKDLIKENNATRHLCNLLKETCARSAEKTKKYEYEREETRQVYMDLNNNIEKMITAFEELRVQAENSRLEMHFKLKEDYEKIQHLEQEYKKEINDKEKQVSLLLIQITEKENKMKDLTFLLEESRDKVNQLEEKTKLQSENLKQSIEKQHHLTKELEDIKVSLQRSVSTQKALEEDLQIATKTICQLTEEKETQMEESNKARAAHSFVVTEFETTVCSLEELLRTEQQRLEKNEDQLKILTMELQKKSSELEEMTKLTNNKEVELEELKKVLGEKETLLYENKQFEKIAEELKGTEQELIGLLQAREKEVHDLEIQLTAITTSEQYYSKEVKDLKTELENEKLKNTELTSHCNKLSLENKELTQETSDMTLELKNQQEDINNNKKQEERMLKQIENLQETETQLRNELEYVREELKQKRDEVKCKLDKSEENCNNLRKQVENKNKYIEELQQENKALKKKGTAESKQLNVYEIKVNKLELELESAKQKFGEITDTYQKEIEDKKISEENLLEEVEKAKVIADEAVKLQKEIDKRCQHKIAEMVALMEKHKHQYDKIIEERDSELGLYKSKEQEQSSLRASLEIELSNLKAELLSVKKQLEIEREEKEKLKREAKE,stoichiometry N,[4],4
